Data published in patent EP4454706A1 (Universität Stuttgart, dated 2024).
Residue numbers refer to the chain shown, from its start. Numbers in names are those of the source. Values belong to the binder of their own block, whether it stands above or below them.

Legend:
[1] = biological target: T1, EGFR-His fusion protein comprising the extracellular domain (aa 25 - 645) of human EGFR (human, UniProt P00533 25-645); assay: ELISA, coated EGFR-His
T1 construct: also called His-tagged extracellular domain of EGFR wt

[2] = biological target: T2, EGFR-moIgG2a-Fc fusion protein comprising the extracellular domain (aa 25 - 645) of human EGFR (human); assay: ELISA, coated EGFR-moIgG2a-Fc
T2 construct: also called EGFR wt

[3] = biological target: T1, EGFR-His fusion protein comprising the …; assay: BLI (Octet), Fab on FAB2G sensor, EGFR-His in solution
[4] = biological target: T3, His-tagged extracellular domain of EGFR comprising the mutation S492R (human, UniProt P00533 25-645); assay: as above
T3 construct: See m46; also called S492R (BLI antigen)

[5] = biological target: T4, His-tagged extracellular domain of EGFR comprising the mutation S464L (human, UniProt P00533 25-645); assay: as above
T4 construct: See m46; also called S464L (BLI antigen)

[6] = biological target: T5, His-tagged extracellular domain of EGFR comprising the mutation V441D (human, UniProt P00533 25-645); assay: as above
T5 construct: See m46; also called V441D (BLI antigen)

[7] = biological target: T6, His-tagged extracellular domain of EGFR comprising the mutation G465R (human, UniProt P00533 25-645); assay: as above
T6 construct: See m46; also called G465R (BLI antigen)

[8] = biological target: T7, EGFR-His fusion protein comprising the extracellular domain of murine EGFR (aa 25 - 647) (murine, UniProt Q01279 25-647); assay: ELISA, coated murine EGFR-His
T7 construct: Bought protein; also called mouse EGFR; Sino Biological 51091-M08H

[9] = biological target: T8, EGFR-His fusion protein comprising the extracellular domain of cynomolgus monkey EGFR (aa 1 - 645) (cynomolgus monkey, UniProt P55245 25-645 (rhesus entry)); assay: ELISA, coated cynomolgus monkey EGFR-His
T8 construct: Bought protein; also called Sino Biological SIN-90285-C08H-50

[10] = biological target: T1, EGFR-His fusion protein comprising the …; assay: ELISA, coated EGFR-His; remark: listed apart in the source
[11] = biological target: T9, human EGFR (aa 1 - 1,210), on cells (human, UniProt P00533 25-1210); assay: flow cytometry, FaDu cells
T9 construct: also called EGFR wt; NIH-3T3 + EGFR wt

[12] = biological target: T1, EGFR-His fusion protein comprising the …; assay: ELISA, coated human EGFR
[13] = biological target: T9, human EGFR (aa 1 - 1,210), on cells; assay: flow cytometry, DiFi cells
[14] = biological target: T9, human EGFR (aa 1 - 1,210), on cells; assay: flow cytometry, DiFi cells; remark: listed apart in the source
[15] = biological target: T9, human EGFR (aa 1 - 1,210), on cells; assay: flow cytometry, LIM1215 cells
[16] = biological target: T1, EGFR-His fusion protein comprising the …; assay: ELISA, coated human EGFR-His
[17] = biological target: T9, human EGFR (aa 1 - 1,210), on cells; assay: flow cytometry, FaDu cells; remark: listed apart in the source
[18] = biological target: T9, human EGFR (aa 1 - 1,210), on cells; assay: flow cytometry, A431 cells
[19] = biological target: T2, EGFR-moIgG2a-Fc fusion protein …; assay: ELISA, coated EGFR-moIgG2a-Fc; remark: listed apart in the source
[20] = biological target: T9, human EGFR (aa 1 - 1,210), on cells; assay: flow cytometry, FaDu cells; remark: listed apart in the source
[21] = biological target: T10, CD3 on Jurkat cells (human, UniProt P07766 23-207); assay: flow cytometry, Jurkat cells
T10 construct: whole, on cells; also called CD3-expressing Jurkat

[22] = biological target: T9, human EGFR (aa 1 - 1,210), on cells; assay: cell-based or functional assay
[23] = biological target: T9, human EGFR (aa 1 - 1,210), on cells; assay: flow cytometry, LIM1215 cells; remark: listed apart in the source

EC50 [1]: 0.49 nM
B1: IgG YU250-H10 wt (parental antibody of Example 5) (antibody)
light: QSVLTQPPSVSGAPGQRVTISCSGGSSNVGRNGVNWFQHLPEKAPKLLIYYDAFLSSGVSDRFSGSKSGTSASLAIRGLQSDDEADYYCAAWDDSLYSWVFGGGTNLTVLGQPKAAPSVTLFPPSSEELQANKATLVCLISDFYPGAVTVAWKADSSPVKAGVETTTPSKQSNNKYAASSYLSLTPEQWKSHRSYSCQVTHEGSTVEKTVAPTECS
heavy: not shown
notes: kept as a molecule of its own; Roles inferred

EC50 [1]: 0.53 nM
B2: IgG YU250-H10 variant VL N126K (antibody)
light: B1 light with N106K
heavy: not shown
notes: Potential glycosylation site in VL deleted (N126K); Roles inferred; also called VL N1216K

EC50 [2]: 2.79 nM
Kd [3]: < 100 nM
Kd [4]: < 10000 nM
Kd [5]: < 10000 nM
Kd [6]: < 10000 nM
Kd [7]: < 10000 nM
B3: Fab-His MKU011-A7 (Fab, V domains shown)
VH: QVQLVQSGGGVVQPGGSLRLSCAASGFTFSSYGMHWVRQAPGKGLEWVAFIRYDGSNKYYADSVKGRFTISRDNSKNTLYLQMNSLRAEDTAVYYCAKDGNSGYDSMDYWGQGTLVTVSS
VL: QPVLTQSPSASGTPGQRVTISCSGVSSNIGRNYVYWYQQFPGTAPKLLIYATHQRPSGVPDRFSGSKSGTSASLAISGLRSEDEANYYCAAWDDGVTGWVFGGGTKLTVLG
notes: also called Fab MKU011-A7; His-tagged anti-EGFR Fab MKU011-A7

EC50 [8]: 0.38 nM
EC50 [9]: 0.69 nM
EC50 [10]: 0.16 nM
EC50 [11]: 0.23 nM
EC50 [12]: 0.59 nM
EC50 [13]: 0.64 nM
EC50 [14]: 0.64 nM
EC50 [15]: 0.09 nM
EC50 [16]: 0.36 nM
EC50 [17]: 0.26 nM
EC50 [18]: 1.24 nM
B4: IgG1 YU250-A02 (antibody, V domains shown)
VH: B3 VH with V5Q, Q6E
VL: QSVLTQPPSVSGAPGQRVTISCSGGSSNVGRNGVNWFQHLPEKAPKLLIYYDAFLSSGVSDRFSGSKSGTSASLAIRGLQSEDEADYYCASWDDSLTGWVFGGGTKLTVLG
notes: also called IgG YU250-A02

EC50 [2]: 0.32 nM
EC50 [10]: 0.19 nM
EC50 [11]: 0.35 nM
EC50 [14]: 0.81 nM
B5: IgG1 MKU011-A7 (antibody, V domains shown)
VH: B3 VH
VL: B3 VL
notes: Fully human IgG1; also called IgG MKU011-A7; IgG MKU-011-A07

Kd [3]: < 100 nM
Kd [4]: < 10000 nM
Kd [5]: < 10000 nM
Kd [6]: < 10000 nM
Kd [7]: < 10000 nM
B6: Fab-His YU250-A02 (Fab, V domains shown)
VH: B3 VH with V5Q, Q6E
VL: B4 VL
notes: Roles inferred as for IgG YU250-A02; also called Fab YU250-A02

EC50 [2]: 0.59 nM
Kd [3]: < 100 nM
Kd [4]: < 10000 nM
Kd [5]: < 10000 nM
Kd [6]: < 10000 nM
Kd [7]: < 10000 nM
fold increased binding against Fab-His MKU011-A7 [19]: 4.7 fold
B7: Fab-His YU250-H10 (Fab, V domains shown)
VH: B3 VH
VL: B4 VL with E82D, S91A, T97Y, G98S, K106N
notes: T0001 gives '6 and 8' and '9 and 11' for Fab-His YU250-H10; Roles inferred; also called Fab YU250-H10

EC50 [8]: 0.45 nM
EC50 [9]: 0.58 nM
EC50 [2]: 0.27 nM
EC50 [10]: 0.19 nM
EC50 [11]: 0.29 nM
EC50 [12]: 0.78 nM
EC50 [13]: 0.73 nM
EC50 [14]: 0.78 nM
EC50 [15]: 0.09 nM
EC50 [16]: 0.28 nM
EC50 [17]: 0.27 nM
EC50 [18]: 1.56 nM
B8: IgG1 YU250-H10 (antibody)
light: B1 light
heavy: not shown
notes: also called IgG YU250-H10

EC50 [20]: 1.68 nM
EC50 [21]: 7.56 nM
EC50 [23]: 1.02 nM
B9: scDb YU250-H10 x huU3 (bispecific antibody)
chain: QVQLVQSGGGVVQPGGSLRLSCAASGFTFSSYGMHWVRQAPGKGLEWVAFIRYDGSNKYYADSVKGRFTISRDNSKNTLYLQMNSLRAEDTAVYYCAKDGNSGYDSMDYWGQGTLVTVSSGGGGSDIQMTQSPSSLSASVGDRVTITCRASQDIRNYLNWYQQKPGKAPKLLIYYTSRLHSGVPSRFSGSGSGTDFTFTISSLQPEDIATYYCQQGNTLPWTFGQGTKLEIKRGGGGSGGGGSGGGGSQVQLVQSGAEVKKPGSSVKVSCKASGGTFSGYTMNWVRQAPGQGLEWMGLINPYKGVSTYNGKFKDRVTITADKSTSTAYMELSSLRSEDTAVYYCARSGYYGDSDWYFDVWGQGTLVTVSSGGGGSQSVLTQPPSVSGAPGQRVTISCSGGSSNVGRNGVNWFQHLPEKAPKLLIYYDAFLSSGVSDRFSGSKSGTSASLAIRGLQSDDEADYYCAAWDDSLYSWVFGGGTNLTVLAAAGGSGGGGSGGGTGGGGSLHHHHHH
notes: Bivalent single-chain diabody; detected with an anti-His antibody; also called bispecific EGFRxCD3 scDb
IC50 for cytotoxicity, FaDu + PBMCs (E:T 10:1) [22]: 0.0181 nM
IC50 for cytotoxicity, LIM1215 + PBMCs (E:T 10:1) [22]: 0.0602 nM

EC50 [20]: 0.74 nM
EC50 [21]: > 10 nM
EC50 [23]: 0.31 nM
B10: scDb-YU250-H10 x huU3-scFv-YU250-H10 (bispecific antibody)
chain: QVQLVQSGGGVVQPGGSLRLSCAASGFTFSSYGMHWVRQAPGKGLEWVAFIRYDGSNKYYADSVKGRFTISRDNSKNTLYLQMNSLRAEDTAVYYCAKDGNSGYDSMDYWGQGTLVTVSSGGGGSDIQMTQSPSSLSASVGDRVTITCRASQDIRNYLNWYQQKPGKAPKLLIYYTSRLHSGVPSRFSGSGSGTDFTFTISSLQPEDIATYYCQQGNTLPWTFGQGTKLEIKRGGGGSGGGGSGGGGSQVQLVQSGAEVKKPGSSVKVSCKASGGTFSGYTMNWVRQAPGQGLEWMGLINPYKGVSTYNGKFKDRVTITADKSTSTAYMELSSLRSEDTAVYYCARSGYYGDSDWYFDVWGQGTLVTVSSGGGGSQSVLTQPPSVSGAPGQRVTISCSGGSSNVGRNGVNWFQHLPEKAPKLLIYYDAFLSSGVSDRFSGSKSGTSASLAIRGLQSDDEADYYCAAWDDSLYSWVFGGGTNLTVLAAAGGSGGGGSGGGTQVQLVQSGGGVVQPGGSLRLSCAASGFTFSSYGMHWVRQAPGKGLEWVAFIRYDGSNKYYADSVKGRFTISRDNSKNTLYLQMNSLRAEDTAVYYCAKDGNSGYDSMDYWGQGTLVTVSSGGGGSGGGGSGGGGSQSVLTQPPSVSGAPGQRVTISCSGGSSNVGRNGVNWFQHLPEKAPKLLIYYDAFLSSGVSDRFSGSKSGTSASLAIRGLQSDDEADYYCAAWDDSLYSWVFGGGTNLTVLGSLHHHHHH
notes: Trivalent; detected with an anti-His antibody; also called scDb-scFv; bispecific trivalent EGFRxCD3 scDb-scFv
IC50 for cytotoxicity, FaDu + PBMCs (E:T 10:1) [22]: 0.0044 nM
IC50 for cytotoxicity, LIM1215 + PBMCs (E:T 10:1) [22]: 0.004 nM
